From the supplement of paper PMC9112550, “Optimization of the antimicrobial peptide Bac7 by deep mutational scanning” (BMC Biology, 2022)

These sequences were tested on Escherichia coli TOP10 (assay: shrunken log2 fold change of peptide-encoding DNA abundance (4.5 h post-induction vs induction); higher = less antimicrobial activity (less host growth inhibition)). Conditions: time post-induction: 4.5 h; library: site-saturation at positions 5, 18, 19, 20.
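Further: peptides expressed intracellularly from a pBAD plasmid library in pooled LB shake-flask culture, induced with 0.3% L-arabinose, DNA abundance read by NGS, three biological replicates, DESeq2 with apeglm shrinkage.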

RRIRGRPPRLPRPRPRPYDDPRP and RRIRCRPPRLPRPRPRPNRYPRP are within 0.2 log units of each other in “shrunken log2 fold change” value: -0.199 for the first, -0.137 for the second.

Compared with RRIRTRPPRLPRPRPRPELGPRP, RRIRPRPPRLPRPRPRPDERPRP is lower in “shrunken log2 fold change” value: 0.248 for the first, -0.0865 for the second.

First: RRIRRRPPRLPRPRPRPYPCPRP
Second: RRIRKRPPRLPRPRPRPLDIPRP
The “shrunken log2 fold change” value of the first is higher: 0.253 for the first, -0.0215 for the second.

RRIRVRPPRLPRPRPRPKWNPRP and RRIRPRPPRLPRPRPRPQWDPRP are within 0.2 log units of each other in “shrunken log2 fold change” value: -0.172 for the first, -0.355 for the second.

RRIRSRPPRLPRPRPRPGTDPRP and RRIRYRPPRLPRPRPRPDVFPRP are within 0.2 log units of each other in “shrunken log2 fold change” value: -0.0659 for the first, -0.0152 for the second.

RRIRERPPRLPRPRPRPGLLPRP and RRIRLRPPRLPRPRPRPDCGPRP are within 0.2 log units of each other in “shrunken log2 fold change” value: -0.0986 for the first, 0.0932 for the second.

First: RRIRVRPPRLPRPRPRPFQLPRP
Second: RRIRRRPPRLPRPRPRPLGIPRP
The “shrunken log2 fold change” value of the first is lower: 0.142 for the first, 0.984 for the second.

RRIRSRPPRLPRPRPRPRTNPRP and RRIRVRPPRLPRPRPRPECYPRP are within 0.2 log units of each other in “shrunken log2 fold change” value: 0.057 for the first, -0.035 for the second.

RRIRTRPPRLPRPRPRPTTGPRP and RRIRRRPPRLPRPRPRPIEFPRP are within 0.2 log units of each other in “shrunken log2 fold change” value: -0.191 for the first, -0.0597 for the second.

First: RRIRKRPPRLPRPRPRPYTYPRP
Second: RRIRDRPPRLPRPRPRPDPWPRP
The “shrunken log2 fold change” value of the first is lower: -0.119 for the first, 0.295 for the second.

Compared with RRIRPRPPRLPRPRPRPPEEPRP, RRIRARPPRLPRPRPRPYIEPRP is lower in “shrunken log2 fold change” value: 0.885 for the first, -0.44 for the second.

RRIRPRPPRLPRPRPRPLPNPRP and RRIRQRPPRLPRPRPRPTKVPRP are within 0.2 log units of each other in “shrunken log2 fold change” value: 0.0283 for the first, -0.0676 for the second.

RRIRSRPPRLPRPRPRPCPSPRP and RRIRERPPRLPRPRPRPWAPPRP are within 0.2 log units of each other in “shrunken log2 fold change” value: 0.0411 for the first, -0.0362 for the second.

Compared with RRIRWRPPRLPRPRPRPANIPRP, RRIRDRPPRLPRPRPRPQEYPRP is higher in “shrunken log2 fold change” value: -0.884 for the first, -0.0984 for the second.

RRIRFRPPRLPRPRPRPFKGPRP and RRIRWRPPRLPRPRPRPYSQPRP are within 0.2 log units of each other in “shrunken log2 fold change” value: -0.23 for the first, -0.425 for the second.

RRIRDRPPRLPRPRPRPGTAPRP and RRIRQRPPRLPRPRPRPNPDPRP are within 0.2 log units of each other in “shrunken log2 fold change” value: 0.0777 for the first, -0.0331 for the second.

First: RRIRVRPPRLPRPRPRPTWHPRP
Second: RRIRRRPPRLPRPRPRPKAPPRP
The “shrunken log2 fold change” value of the first is higher: 0.384 for the first, 0.0122 for the second.

First: RRIRYRPPRLPRPRPRPMFYPRP
Second: RRIRVRPPRLPRPRPRPVCTPRP
The “shrunken log2 fold change” value of the first is lower: -1.04 for the first, 0.165 for the second.

Compared with RRIRSRPPRLPRPRPRPPRQPRP, RRIRNRPPRLPRPRPRPTFKPRP is lower in “shrunken log2 fold change” value: 0.389 for the first, -0.175 for the second.

RRIRDRPPRLPRPRPRPKYAPRP and RRIRRRPPRLPRPRPRPHKTPRP are within 0.2 log units of each other in “shrunken log2 fold change” value: 0.0137 for the first, 0.107 for the second.

Going from RRIRKRPPRLPRPRPRPSRFPRP to RRIRRRPPRLPRPRPRPMRLPRP, the “shrunken log2 fold change” value falls from 1.06 to 0.667.

First: RRIRARPPRLPRPRPRPHRPPRP
Second: RRIRMRPPRLPRPRPRPFPMPRP
The “shrunken log2 fold change” value of the first is lower: -0.0433 for the first, 0.237 for the second.

Going from RRIRARPPRLPRPRPRPGISPRP to RRIRFRPPRLPRPRPRPQDTPRP, the “shrunken log2 fold change” value falls from 0.337 to -0.46.

Compared with RRIRSRPPRLPRPRPRPTRRPRP, RRIRERPPRLPRPRPRPNPIPRP is lower in “shrunken log2 fold change” value: 0.109 for the first, -0.213 for the second.

Going from RRIRWRPPRLPRPRPRPEQTPRP to RRIRQRPPRLPRPRPRPSLIPRP, the “shrunken log2 fold change” value falls from -0.0026 to -0.275.

RRIRKRPPRLPRPRPRPFYMPRP and RRIRVRPPRLPRPRPRPCPWPRP are within 0.2 log units of each other in “shrunken log2 fold change” value: -0.117 for the first, 0.0617 for the second.

RRIRHRPPRLPRPRPRPKMSPRP and RRIRWRPPRLPRPRPRPTLYPRP are within 0.2 log units of each other in “shrunken log2 fold change” value: 0.166 for the first, -0.0322 for the second.

Going from RRIRERPPRLPRPRPRPCYWPRP to RRIRNRPPRLPRPRPRPNRPPRP, the “shrunken log2 fold change” value rises from -0.361 to -0.0547.

Compared with RRIRIRPPRLPRPRPRPKINPRP, RRIRCRPPRLPRPRPRPMGQPRP is higher in “shrunken log2 fold change” value: -0.881 for the first, 0.00321 for the second.

Going from RRIRNRPPRLPRPRPRPTELPRP to RRIRKRPPRLPRPRPRPRWRPRP, the “shrunken log2 fold change” value rises from -0.0232 to 0.658.

RRIRSRPPRLPRPRPRPQFAPRP and RRIRARPPRLPRPRPRPHFPPRP are within 0.2 log units of each other in “shrunken log2 fold change” value: 0.105 for the first, 0.0382 for the second.

RRIRWRPPRLPRPRPRPSYWPRP and RRIRYRPPRLPRPRPRPCPWPRP are within 0.2 log units of each other in “shrunken log2 fold change” value: -0.415 for the first, -0.227 for the second.

First: RRIRYRPPRLPRPRPRPKFKPRP
Second: RRIRLRPPRLPRPRPRPITWPRP
The “shrunken log2 fold change” value of the first is higher: -0.319 for the first, -0.543 for the second.

RRIRTRPPRLPRPRPRPWDRPRP and RRIRHRPPRLPRPRPRPPIIPRP are within 0.2 log units of each other in “shrunken log2 fold change” value: -0.105 for the first, -0.183 for the second.

Going from RRIRKRPPRLPRPRPRPVADPRP to RRIRIRPPRLPRPRPRPEQCPRP, the “shrunken log2 fold change” value falls from 0.14 to -0.122.

Compared with RRIRFRPPRLPRPRPRPSCPPRP, RRIRARPPRLPRPRPRPNDAPRP is higher in “shrunken log2 fold change” value: -0.72 for the first, -0.0891 for the second.

RRIRMRPPRLPRPRPRPHLTPRP and RRIRDRPPRLPRPRPRPKMGPRP are within 0.2 log units of each other in “shrunken log2 fold change” value: -0.0375 for the first, -0.0622 for the second.

For RRIRERPPRLPRPRPRPLHWPRP, the “shrunken log2 fold change” value was 0.0186.
